assay: soluble on expression in E. coli; label from the status in PepcDB or PDB records

Sequence | soluble on expression in E. coli
MGSDKIHHHHHHMQKLTLKEVQAKAVEILVYIDNICRSNNLHYTLFYGTLIGVERHKGFIPWDDDIDIVMPRPDYELLIKILKNDSNYQLLSFETRKHFRYPFAKLVDPNTVAHSKQYFGGEDKDLGVFVDIFPIDGIPDTQKERNELRKITEQYRLNLMDTLGLSYARSFHLSKALIKLITRYPNHFKVKKVGNNQYWRDLYQTEAKKTPFGATKHCGYLEWIHIDWGVFPNEWFLEYEDVEFEGHKFMAIKNRKQFLTLRYGDYMEMPPVEERITHHPYDFYQK | not soluble
LVLEGGGMRGVFTCGVLDYLMDHDIRFPYAIGVSAGACNGLSYASRQRGRAKFSNIDLLEKYNYIGLKHLLRKRNILDFDLLFNEFPEHILPYDYDTYFASPERFVMVTTNCMTGEANYFEEKRDKSRVIDIVRASSSLPFVCPVTYVDGVPMLDGGIVDSIPLQRAIADGYTRNVVILTRNRGYRKDTKDIRIPSFVYRKYPKLREALSRRCAVYNEQLEMVEQMEDEGKIIVIRPQKPVMVDRIERDVQKLTEFYEEGYDCARNLFEF | not soluble
MIDENLIKINLICESQDEVFHYLATLVVDNGYANNTESVVQALKLRESEGTTGMMEGFAIPHAKDKSIVKPSIAILKLKTGVEWHSMDGQLINNVIALFIPEKEAGTTHLKVLSQIARLLVNKTFKEKIKEADTILELKELLTEKLDLTS | not soluble
MAPSCLKMAHMRLLLTSFGHDHIRDFVRGTVAYIPDATRLFADSPEAAPFMETERNMLREHGLSIRELPISTSTPEEVDRVLGEVDGVYVAGGETFDLMWLLRSTGNDEVLIKHVRAGLPYIGTSAGAVIAGPSIEPISFLDSPDVAPNLSDYSGLGLCEHVVVPHAGGTIPQFPIDVFAETVRTYGAEFPLVLLKDGQALLIDDHGVHLILEHHHHHH | soluble
MRNTVNILGIPIDNVSMDEALNVVKGFLSEDRVHTVYTPNSEIMMAAQRDPELKKILCEADLLVPDGAGVVLASKINGCPLKERVAGFDLTNMLFSDEAAKAVNFFFLGGKPGVAEEAYKNLLDRKININVVGIRNGYFTKDEEEEIIRQINDSNTDVLLVALGAPKQEKWIHANKEKLKVKVCIGVGGTFDVLAGRAKRAPVFFQKHGLEWLYRLYKEPWRFVRMLDLPRFILRVIANKIRPEKPERA | soluble
MTDQATPNLPSRDFDSTAAFYERLGFGIVFRDAGWMILQRGDLMLEFFAHPGLDPLASWFSCCLRLDDLAEFYRQCKSVGIQETSSGYPRIHAPELQGWGGTMAALVDPDGTLLRLIQNELLAGIS | soluble
GSLATCIGEKIEDFKVGNLLGKGSFAGVYRAESIHTGLEVAIKMIDKKAMYKAGMVQRVQNEVKIHCQLKHPSILELYNYFEDSNYVYLVLEMCHNGEMNRYLKNRVKPFSENEARHFMHQIITGMLYLHSHGILHRDLTLSNLLLTRNMNIKIADFGLATQLKMPHEKHYTLCGTPNYISPEIATRSAHGLESDVWSLGCMFYTLLIGRPPFDTDTVKNTLNKVVLADYEMPSFLSIEAKDLIHQLLRRNPADRLSLSSVLDHPFMSRNSSTKSKDLGTVEDSIDSGHATISTAITASSSTSISGSLFDKRRLLIGQPLPNKMTVFPKEG | soluble
MCGRFAQSQTREDYLALLAEDIERDIPYDPEPIGRYNVAPGTKVLLLSERDEHLHLDPVFWGYAPGWWDKPPLINARVETAATSRMFKPLWQHGRAICFADGWFEWKKEGDKKQPFFIYRADGQPIFMAAIGSTPFERGDEAEGFLIVTAAADQGLVDIHDRRPLVLSPEAAREWMRQEISGKEASEIAASGCVPANQFSWHPVSRAVGNVKTRARSLEHHHHHH | not soluble
MSLTPTFKDKIARAPKAELHIHIEGSLEPELIFALAQRNGVKLAYDSIDALRAAYAFTDLQSFLDIYYAGASVLLTEQDFYDMTAAYCERALADNVVHTELFFDPQTHTERGVSIETVVAGIERALADAEQRGLSSKLILCFLRHLSEEDALATFESALPLFERYRHRLIGVGLDSSELGHPPTKFARVFEKARALGLKLVAHAGEEGPPAYIYEALDVLKVDRIDHGVRSIEDEALVERLAKTRTALTVCPLSNLKLCVFDDMAKHTLKALLDRGVAVTINSDDPAYFGGYVNENYFATAEGLQLTDAEVHAVIRNGFEASFIEPAQRDALYARLDAYWQAAEGHHHHHH | soluble
MSLALRLIERDPYEHPERLRQLQQELEAFRGQLGDVGALDTVWRELQDAQEHDARGRSIAIARCYSLKNRHQDVMPYDSNRVVLRSGKDDYINASCVEGLSPYCPPLVATQAPLPGTAADFWLMVHEQKVSVIVMLVSEAEMEKQKVARYFPTERGQPMVHGALSLALSSVRSTETHVERVLSLQFRDQSLKRSLVHLHFPTWPELGLPDSPSNLLRFIQEVHAHYLHQRPLHTPIIVHCSSGVGRTGAFALLYAAVQEVEAGNGIPELPQLVRRMRQQRKHMLQEKLHLRFCYEAVVRHVEQVLQRHGEGHHHHHH | soluble
MMSNRSDFIVPDEAAVKRAASVNFHLEPLRPWLDDPQITEVCVNRPGEVFCERASAWEYYAVPNLDYEHLISLGTATARFVDQDISDSRPVLSAILPMGERIQIVRPPACEHGTISVTIRKPSFTRRTLEDYAQQGFFKHVRPMSKSLTPFEQELLALKEAGDYMSFLRRAVQLERVIVVAGETGSGKTTLMKALMQEIPFDQRLITIEDVPELFLPDHPNHVHLFYPSEAKEEENAPVTAATLLRSCLRMKPTRILLAELRGGEAYDFINVAASGHGGSITSCHAGSCELTFERLALMVLQNRQGRQLPYEIIRRLLYLVVDVVVHVHNGVHDGTGRHISEVWYDPNTKRALSLQHSEKT | soluble
MADKLAFTTADLVTCLICIREFDTKTRKPKVLHCGHTVCEECTDNLRDFNAPLLVVRCPTCRQFTKRPVAESCNTNFQLMGYLAEKEKFEREKKAKGGKPKKPDQVLTLKMARSNRMEIHVASKKDLEGPELYLRKDSEGNTHIVVAGLTGSPAEVMKFITENGISIETGVLMPQVVYDEGRTRGGTEKFAKVNSMAAGQSAIKCTKPPVKLEELEFHKTFELKVSEESGSLKMELVQKEEVPKNGFGVFEGCMTKPSAKRLKEFTDSCPGTSAEDEVQVIEPEPLPKRRRTRK | not soluble
MAARHHAFILAGTGSGCGKTTVTLGLLRLLQKRALRVQPFKVGPDYLDTGWHTAICGVASRNLDSFMLPPPVLNALFCEQMRQADIAVIEGVMGLYDGYGVDPNYCSTAAMAKQLGCPVILLVDGKAVSTSLAATVMGFQHFDPTLNLAGVIVNRVTSDAHYQLLKNAIEHYCSLPVLGYVPPCDGVALPERHLGLITARESLVNQQSWHDFAATLEQTVDVDALLSLSVLSALPAGMWPERPDNTAGAGLTLALADDEAFNFYYPDNIDLLERAGVNIVRFSPLHDRALPDCQMIWLGGGYPELYAADLAANTVMLKHLRAAHQRGVAIYAECGGLMYLGSTLEDSGGEIHQMANIIPGHSKMGKRLTRFGYCEAQAMQPTLLAAPGEIVRGHEFHYSDFIPETPAVMACRKVRDGRVLQEWTGGWQTGNTFASYLHVHFAQRPEMLQHWLAAARRVL | not soluble
MRGIRDPRLIPIAEKVMEGKRLSFEDGLVLYQTKDLPTLMRLANLVRERKHGHKTYFVHSIRVSQTNICYVGCTFCAFQRRFGEEGAWDWDVDEVVAWVKERYQPGLTEIHLTAGHHPKRPFAYYLDLVRALKENFPGVQVKAWTAAEIHHFSKIARLPYREVLKALKEAGLDAMPGGGAEIFAERVRRKIARAKVSAEGWLEIHRTAHELGIPTNATMLYGHIETLEERLDHMDRLRRLQDETGGFMSFIPLAFQPDGNQLARELGKKEFTTGLDDLRNLAVARLYLDNFPHIKGYWATLTPELAQVSLDWGVTDVDGTLIEERIVHMAGSPTPQGLTKRELARIILMAGRIPVERDALYREVRVWDRVEA | soluble
MSLEGYSVLVLERHYRAGGYAHSFRRRKFIFDSAVRIAAGAMDGGLLEELLQEAGVSQDVEFLHLEDIYTAYYPNRKITVKGSVEGLIEAYCEEFPHECHNIRALVQEMEKLYEVTLMLLHSGDPLKVLSNPLMLKYRDKSFHDLTSSFLQDPQAIHSFAALWAYYGTPPTQGSAMFFAYAIMSYFKEDIYYAKGSFQSLADAFVKRIESLGGEVCLRNEVQRVEVEDRQIKGVHLQTGEYVEAEKVVCNGDFLKLVQHLVGEEHFPARYLKRISKLKPSISAFEVFLGVDLPLEKQGLSHETFIYNDYDYDLFMEKHQSLGEIGASGLSGLAISIPSLVDSSLAPEGMHTAILTTLVPYDIGCDWKEKKEDYQDQLIKMAERAIPNLGRHAVHVESGTPLTMERYTNNSFGSIYGWEQTKNQMTGRPQHETPIKGLYLSGQWTDPGGGIVSAILSGYKLRKKIMKEQVVMEGHHHHHH | not soluble
MSLNRNDKRGARRNILAHYDLGNALFERLLDPTMMYSAAQFEHPGQTLEQAQLHKLERICQKLELSPDDHLLEIGSGWGSLAIHAATRYGCRVTTTTLSEAQYSHTLERVKALGLGQRVQVLREDYRDLQGTFDKLVSIEMIEAVGHRYLPVYFRQCASLLKPEGLMLLQAITIRDQRYAQAQRSVDFIQRYIFPGGALPSLSVLLDTASRHTGLNLVHMEDFGLDYAHTLRHWRENLRQARTALTDLGYDDMFQRLWEFYLCYCQGGFEERAIGVAHLLWAAEGHHHHHH | soluble
MSLGTVHARSLEPLPASGPDFGALGEEAEFVEVEPEAKQEILENKDVVVQHVHFDGLGRTKDDIIMYEIRDVFKAKNLIEVMRKSHEAREKLLRLGIFRQVDVLIDTCQGDDALPNGLDVTFEVTELRRLTGSYNTMVGNNEGSMVLGLKLPNLLGRAEKVTFQFSYGTKETSYGLSFFKPQPGNFDRNFSVNLYKVTGQFPWSSLRETDRGVSAEYSFPTWKTSHTVKWEGVWRELGCLSRVASFAVRKESGHSLKSSLSHSMVIDSRNSSILPKRGALLKVNQELAGYTGGDVSFLKEDFELQLNKQLILDTVFSASLWGGMLVPMGDKPSSIADRFYLGGPTSVRGFSMHSVGPQSEGDYLGGEAYWAGGLHLYTPLPFRPGQGGFGELFRTHFFLNAGNLCNLNYGEGPKAHIRKLAECIRWSYGAGIVLRLGNIARLELNYCVPMGVQRGDRICDGVQFGAGIRFLEGHHHHHH | not soluble
MLNGSCLCGRVAYTVDGPLADVVNCHCAMCRKAHGAAFRTRATVRAEHFAFVRGESDITWYSSSPGNYRGFCSACGTPLLSRFDQTPDVYALPLGALDDDPGVKAACHVYVAHKAPWHDITDDLPRHPEGRPG | not soluble
MAHHHHHHMGTLEAQTQGPGSMNLDDIGSGSNAPEEVNVVIEVSQDSHPVKYEFDEKNGALWVDRFLPTAMYYPCNYGFIPNTIAGDGDPVDVLVLARFPVMPGAVICVRPVGVLMMNDEKGEDAKVLAVPATKVDQYYGNIVNYSDLPSSFLDSISHFFSFYKKLEKDKFVSVGCWQDAASAKELIRSAIIAAKKGEN | soluble
MSLVHQLLAQMENGYMKIIKENLVGIYLHGSYAFGTYCHSVSDLDVLIVVYEKLTIDEKKQLLDYTINILDKWAPKKGIEFHVLQLKDTINLSYPIPFDLHFSPIHRSRYLTNKNKYIEDMMGYDEDLVAHLMITKLYGKVLVGKPIDSVFGWIDQKKYFESIVADVKEAKKEIVQQPMYVILNMCRVMAFKQENKILSKRAGGEWGLVHFPTNHHSLIQLALKEYRGETVLLEQYNDSELNDFADIMLSLLFKEGHHHHHH | not soluble
